Where a chain is given by its changes, count along the chain named. Names may count otherwise.

What is called Kd is the constant that tells how readily two partners part at equilibrium. A low value points to higher affinity.

T1: EsCas13d, nuclease-dead (Eubacterium siraeum, UniProt B0MS50, R295A;H300A;R849A;H854A)
T1 sequence: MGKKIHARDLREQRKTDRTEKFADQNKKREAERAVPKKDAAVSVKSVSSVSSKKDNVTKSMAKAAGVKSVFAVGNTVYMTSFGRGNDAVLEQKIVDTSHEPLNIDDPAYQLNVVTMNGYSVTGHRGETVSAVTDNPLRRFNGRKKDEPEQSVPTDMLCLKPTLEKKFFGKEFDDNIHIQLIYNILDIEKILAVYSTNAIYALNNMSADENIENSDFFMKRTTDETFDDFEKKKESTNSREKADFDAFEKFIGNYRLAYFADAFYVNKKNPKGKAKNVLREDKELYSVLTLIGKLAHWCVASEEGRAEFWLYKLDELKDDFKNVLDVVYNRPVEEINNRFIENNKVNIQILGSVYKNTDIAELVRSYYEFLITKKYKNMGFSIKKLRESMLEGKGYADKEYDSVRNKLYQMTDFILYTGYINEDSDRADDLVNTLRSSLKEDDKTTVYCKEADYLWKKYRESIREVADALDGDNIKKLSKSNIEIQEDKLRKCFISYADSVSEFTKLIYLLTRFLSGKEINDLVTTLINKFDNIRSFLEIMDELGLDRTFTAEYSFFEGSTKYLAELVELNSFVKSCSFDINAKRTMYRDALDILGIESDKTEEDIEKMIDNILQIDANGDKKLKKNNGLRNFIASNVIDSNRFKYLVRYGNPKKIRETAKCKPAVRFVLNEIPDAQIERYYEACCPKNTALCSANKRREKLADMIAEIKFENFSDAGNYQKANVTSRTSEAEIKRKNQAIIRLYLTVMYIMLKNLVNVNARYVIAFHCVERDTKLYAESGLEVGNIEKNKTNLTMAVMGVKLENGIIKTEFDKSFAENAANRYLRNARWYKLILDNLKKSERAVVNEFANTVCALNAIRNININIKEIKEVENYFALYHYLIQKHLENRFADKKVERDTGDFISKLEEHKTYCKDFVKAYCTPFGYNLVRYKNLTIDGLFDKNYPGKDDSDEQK

B1: target 1 insG 3' of 22,insG 3' of 21 (mixed)
RNA 1: CACCCGUGCAAAAAUGCAGGGGUCUAAAACUGAGCGGAUAACCUCUCUAUGG
RNA 2: GGGAAUGGAUCCACAUCUACGAAUUCGUACGCGAUAGAGAGGUUAUCCGCUCACCGAGAUCGGAAGAGCACACGU
B2: target 1 A9U,G13U (mixed)
RNA 1: B1 RNA 1
RNA 2: GGGAAUGGAUCCACAUCUACGAAUUCGUACCAUAGAGAUGUUUUCCGCUCACCGAGAUCGGAAGAGCACACGU
B3: target 1 G13C,A14C (mixed)
RNA 1: B1 RNA 1
RNA 2: B2 RNA 2 with A38C, U39C, U43A
B4: target 2 MT 5'PFS AAC 3'PFS AGA (mixed)
RNA 1: CACCCGUGCAAAAUUGCAGGGGUCUAAAACCUUCUCCAAAUUGUUUCAUCCU
RNA 2: GGGAAUGGAUCCACAUCUACGAAUUCAACAGGAUGAAACAAUUUGGAGAAGAGAAGAUCGGAAGAGCACACGU
B5: target 2 MT 5'PFS CUG 3'PFS ACU (mixed)
RNA 1: B4 RNA 1
RNA 2: B4 RNA 2 with A27C, A28U, C29G, G53C, A54U
B6: target 2 MT 5'PFS ACG 3'PFS CAC (mixed)
RNA 1: B4 RNA 1
RNA 2: B4 RNA 2 with A28C, C29G, A52C, G53A, A54C
B7: target 2 MT 5'PFS GCA 3'PFS AAA (mixed)
RNA 1: B4 RNA 1
RNA 2: B4 RNA 2 with A27G, A28C, C29A, G53A
B8: target 2 MT 5'PFS UCG 3'PFS CAC (mixed)
RNA 1: B4 RNA 1
RNA 2: B4 RNA 2 with A27U, A28C, C29G, A52C, G53A, A54C
B9: target 2 MT 5'PFS CGC 3'PFS ACU (mixed)
RNA 1: B4 RNA 1
RNA 2: B4 RNA 2 with A27C, A28G, G53C, A54U
B10: target 2 MT 5'PFS CUG 3'PFS ACG (mixed)
RNA 1: B4 RNA 1
RNA 2: B4 RNA 2 with A27C, A28U, C29G, G53C, A54G
B11: target 2 MT 5'PFS GCG 3'PFS AGA (mixed)
RNA 1: B4 RNA 1
RNA 2: B4 RNA 2 with A27G, A28C, C29G
B12: target 2 MT 5'PFS ACU 3'PFS AAU (mixed)
RNA 1: B4 RNA 1
RNA 2: B4 RNA 2 with A28C, C29U, G53A, A54U
B13: target 2 MT 5'PFS UCG 3'PFS ACU (mixed)
RNA 1: B4 RNA 1
RNA 2: B4 RNA 2 with A27U, A28C, C29G, G53C, A54U
B14: target 2 MT 5'PFS CUC 3'PFS CUG (mixed)
RNA 1: B4 RNA 1
RNA 2: B4 RNA 2 with A27C, A28U, A52C, G53U, A54G
B15: target 2 MT 5'PFS CGC 3'PFS ACG (mixed)
RNA 1: B4 RNA 1
RNA 2: B4 RNA 2 with A27C, A28G, G53C, A54G
B16: target 2 MT 5'PFS CUC 3'PFS CUU (mixed)
RNA 1: B4 RNA 1
RNA 2: B4 RNA 2 with A27C, A28U, A52C, G53U, A54U
B17: target 2 MT 5'PFS ACU 3'PFS AAG (mixed)
RNA 1: B4 RNA 1
RNA 2: B4 RNA 2 with A28C, C29U, G53A, A54G
B18: target 2 MT 5'PFS GCG 3'PFS AGC (mixed)
RNA 1: B4 RNA 1
RNA 2: B4 RNA 2 with A27G, A28C, C29G, A54C
B19: target 2 MT 5'PFS GCA 3'PFS AAU (mixed)
RNA 1: B4 RNA 1
RNA 2: B4 RNA 2 with A27G, A28C, C29A, G53A, A54U
B20: target 2 MT 5'PFS GCG 3'PFS AGU (mixed)
RNA 1: B4 RNA 1
RNA 2: B4 RNA 2 with A27G, A28C, C29G, A54U
B21: target 2 MT 5'PFS CUC 3'PFS CUA (mixed)
RNA 1: B4 RNA 1
RNA 2: B4 RNA 2 with A27C, A28U, A52C, G53U
B22: target 2 MT 5'PFS CUG 3'PFS ACA (mixed)
RNA 1: B4 RNA 1
RNA 2: B4 RNA 2 with A27C, A28U, C29G, G53C
B23: target 2 MT 5'PFS UCG 3'PFS ACG (mixed)
RNA 1: B4 RNA 1
RNA 2: B4 RNA 2 with A27U, A28C, C29G, G53C, A54G
B24: target 2 MT 5'PFS CGC 3'PFS ACC (mixed)
RNA 1: B4 RNA 1
RNA 2: B4 RNA 2 with A27C, A28G, G53C, A54C
B25: target 2 MT 5'PFS CUC 3'PFS CUC (mixed)
RNA 1: B4 RNA 1
RNA 2: B4 RNA 2 with A27C, A28U, A52C, G53U, A54C
B26: target 2 MT 5'PFS GCG 3'PFS AGG (mixed)
RNA 1: B4 RNA 1
RNA 2: B4 RNA 2 with A27G, A28C, C29G, A54G
B27: target 2 MT 5'PFS ACU 3'PFS AAA (mixed)
RNA 1: B4 RNA 1
RNA 2: B4 RNA 2 with A28C, C29U, G53A
B28: target 2 MT 5'PFS GAU 3'PFS AGU (mixed)
RNA 1: B4 RNA 1
RNA 2: B4 RNA 2 with A27G, C29U, A54U
B29: target 2 MT 5'PFS ACU 3'PFS AAC (mixed)
RNA 1: B4 RNA 1
RNA 2: B4 RNA 2 with A28C, C29U, G53A, A54C
B30: target 2 MT 5'PFS CGC 3'PFS ACA (mixed)
RNA 1: B4 RNA 1
RNA 2: B4 RNA 2 with A27C, A28G, G53C
B31: target 2 MT 5'PFS ACG 3'PFS CAU (mixed)
RNA 1: B4 RNA 1
RNA 2: B4 RNA 2 with A28C, C29G, A52C, G53A, A54U
B32: target 2 MT 5'PFS GCA 3'PFS AAC (mixed)
RNA 1: B4 RNA 1
RNA 2: B4 RNA 2 with A27G, A28C, C29A, G53A, A54C
B33: target 2 MT 5'PFS GUG 3'PFS UGU (mixed)
RNA 1: B4 RNA 1
RNA 2: B4 RNA 2 with A27G, A28U, C29G, A52U, A54U
B34: target 2 MT 5'PFS CUG 3'PFS ACC (mixed)
RNA 1: B4 RNA 1
RNA 2: B4 RNA 2 with A27C, A28U, C29G, G53C, A54C
B35: target 2 MT 5'PFS ACG 3'PFS CAG (mixed)
RNA 1: B4 RNA 1
RNA 2: B4 RNA 2 with A28C, C29G, A52C, G53A, A54G
B36: target 2 MT 5'PFS GCA 3'PFS AAG (mixed)
RNA 1: B4 RNA 1
RNA 2: B4 RNA 2 with A27G, A28C, C29A, G53A, A54G

This series concerns the target T1, EsCas13d, nuclease-dead. As to the kind of experiment: crRNA (strand 1, pre-loaded); Mg2+; 40 mM Tris-HCl pH 7.5, 150 mM NaCl, 6 mM MgCl2, 1 mM DTT, 0.1% Tween-20, 0.2 mg/ml BSA; 25 C; 10 min per concentration, then washed. As to conditions: tags: His6-TwinStrep-SUMO cleaved; N-terminal SNAP kept (SNAP-Surface 488); label: 3' end held by stalled T7 RNA polymerase.
Consider B1, for which the Kd is 68 ± 24 nM. The figure for B2 is 53 ± 8 nM. B3 came in with a dissociation constant Kd of 50 ± 9 nM. B4 showed an equilibrium dissociation constant (Kd) of 3.3 ± 0.8 nM.

With B5, the affinity, expressed as Kd, was 4.5 ± 0.8 nM. Consider B6, for which the Kd was determined as 5.7 ± 1.2 nM.

Turning to B7, binding was characterised by a dissociation constant (Kd) of 6.5 ± 2 nM. The molecule B8 gave a Kd of 27 ± 8 nM. In turn, B9 returned a Kd of 6 ± 0.8 nM. The figure for B10 is 2.89 ± 0.25 nM; for B11 it is 7.6 ± 1 nM.

Regarding B12, binding was put at a Kd of 4.1 ± 0.5 nM.

In turn, B13 yielded a Kd of 20 ± 4 nM. Then B14, with 4.4 ± 1.5 nM; and B15, with 5.2 ± 0.7 nM. The figure for B16 is 2.47 ± 0.18 nM; for B17 it is 3.7 ± 0.5 nM. With B18, the dissociation constant Kd is 9.7 ± 1.6 nM.

The molecule B19 gave a dissociation constant Kd of 10 ± 1.9 nM.

In turn, B20 had a Kd of 11.6 ± 2.1 nM.

B21 displayed a Kd of 2.02 ± 0.29 nM. B22 returned a Kd of 3.9 ± 0.5 nM. Take B23: the Kd came to 45 ± 9 nM.

The molecule B24 returned a dissociation constant Kd of 18 ± 4 nM. Then B25, with 3.1 ± 0.6 nM; and B26, with 16.2 ± 2.8 nM. B27 displayed an equilibrium dissociation constant (Kd) of 4.7 ± 1.7 nM. Molecule B28 yielded a dissociation constant Kd of 12.3 ± 2 nM. For B29, binding was characterised by a dissociation constant (Kd) of 5.7 ± 0.8 nM.

Take B30: the affinity, expressed as Kd, was 11 ± 5 nM.

For the molecule B31, the Kd came out at 5.5 ± 0.6 nM. Take B32: the affinity, expressed as Kd, was 11.9 ± 3.3 nM. Then B33, with 27 ± 2.4 nM. The figure for B34 is 5.6 ± 1.2 nM; for B35 it is 7.7 ± 1.4 nM. Turning to B36, the Kd is 7.8 ± 1.2 nM.
